Data as given in patent US20030207446A1 (US Dept. of Health and Human Services, published 2003).

B1: bovine papillomavirus type 1 (BPV1) L2 minor capsid protein (other)
chain: MSARKRVKRASAYDLYRTCKQAGTCPPDVIPKVEGDTIADKILKFGGLAIYLGGLGIGTWSTGRVAAGGSPRYTPLRTAGSTSSLASIGSRAVTAGTRPSIGAGIPLDTLETLGALRPGVYEDTVLPEAPAIVTPDAVPADSGLDALSIGTDSSTETLITLLEPEGPEDIAVLELQPLDRPTWQVSNAVHQSSAYHAPLQLQSSIAETSGLENIFVGGSGLGDTGGENIELTYFGSPRTSTPRSIASKSRGILNWFSKRYYTQVPTEDPEVFSSQTFANPLYEAEPAVLKGPSGRVGLSQVYKPDTLTTRSGTEVGPQLHVRYSLSTIHEDVEAIPYTVDENTQGLAFVPLHEEQAGFEEIELDDFSETHRLLPQNTSSTPVGSGVRRSLIPTQEFSATRPTGVVTYGSPDTYSASPVTDPDSTSPSLVIDDTTTTPIIIIDGHTVDLYSSNYTLHPSLLRKRKKRKHA
notes: mature; Expressed from recombinant Semliki Forest virus in BHK-21 or BPHE-1 cells; also called BPV L2
B2: BPV E2 protein (full-length 48 kD form) (other)
chain: METACERLHVAQETQMQLIEKSSDKLQDHILYWTAVRTENTLLYAARKKGVTVLGHCRVPHSVVCQERAKQAIEMQLSLQELSKTEFGDEPWSLLDTSWDRYMSEPKRCFKKGARVVEVEFDGNASNTNWYTVYSNLYMRTEDGWQLAKAGADGTGLYYCTMAGAGRIYYSRFGDEAARFSTTGHYSVRDQDRVYAGVSSTSSDFRDRPDGVWVASEGPEGDPAGKEAEPAQPVSSLLGSPACGPIRAGLGWVRDGPRSHPYNFPAGSGGSILRSSSTPVQGTVPVDLASRQEEEEQSPDSTEEEPVTLPRRTTNDGFHLLKAGGSCFALISGTANQVKCYRFRVKKNHRHRYENCTTTWFTVADNGAERQGQAQILITFGSPSQRQDFLKHVPLPPGMNISGFTASLDF
notes: mature; BPHE-1 cells express three forms of E2; SFV-E2 gives only the 48 kD form

Experiments:
[1] = target: T1, bovine papillomavirus type 1 (BPV1) L1 major capsid protein (bovine papillomavirus type 1 (BPV1), UniProt P03103 1-495); test: co-expression from recombinant SFV in BHK-21 cells; heading of the section
T1 construct: mature; Expressed from recombinant Semliki Forest virus in BHK-21 or BPHE-1 cells; self-assembles into VLPs; also called BPV L1

[2] = target: B1; test: coimmunoprecipitation; cosedimentation in sucrose gradients

Binder | binding result [1] | binding result [2]
B1 | binds | 
B2 |  | no binding
